Assay results taken from patent publication US20170129954A1 (PROTHENA BIOSCIENCES, published 2017).
Numbering of substitutions follows the chain as printed.

How the values were obtained:
[1] = biological target: T1, human MCAM, full length, expressed on transfected cells (human, UniProt P43121 24-646); assay: flow cytometry, blocking of recombinant human laminin 411 (20 ug/ml) binding to CHO cells expressing human MCAM
T1 construct: also called CD146; MUC18
T1 chain: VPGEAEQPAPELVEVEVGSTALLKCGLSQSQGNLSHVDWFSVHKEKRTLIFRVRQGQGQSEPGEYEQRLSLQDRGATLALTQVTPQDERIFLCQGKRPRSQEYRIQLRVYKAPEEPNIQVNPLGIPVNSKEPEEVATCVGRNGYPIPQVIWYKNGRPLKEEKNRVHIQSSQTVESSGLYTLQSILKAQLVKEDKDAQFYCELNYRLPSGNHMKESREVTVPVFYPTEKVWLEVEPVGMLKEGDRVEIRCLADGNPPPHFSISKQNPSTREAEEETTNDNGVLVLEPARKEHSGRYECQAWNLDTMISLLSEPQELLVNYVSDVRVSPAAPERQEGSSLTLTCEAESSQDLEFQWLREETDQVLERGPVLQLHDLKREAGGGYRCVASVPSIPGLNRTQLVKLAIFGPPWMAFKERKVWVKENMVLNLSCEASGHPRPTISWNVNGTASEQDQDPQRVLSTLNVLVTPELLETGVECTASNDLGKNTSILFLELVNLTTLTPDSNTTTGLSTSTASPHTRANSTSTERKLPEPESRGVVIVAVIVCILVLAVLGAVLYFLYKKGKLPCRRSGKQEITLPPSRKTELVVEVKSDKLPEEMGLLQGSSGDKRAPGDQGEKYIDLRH
Method: The 87 independent mouse fusion clones and 26 independent rat fusion clones described in Example 1 above as being capable of (i) binding to human MCAM, and (ii) blocking the interaction between human MCAM and the α-4 chain of laminin were further characterized as follows. First, IC50 quantitation for the ability of the monoclonal antibody to block the binding of human MCAM to the α-4 chain of laminin was determined as follows. CHO cells expressing human MCAM were incubated with an anti-human MCAM antibody (at various concentrations) for 30 minutes at 4 degrees Celsius. […] Unbound laminin was then washed away, and the laminin bound to the surface of the cells was detected with fluorescently labeled anti-laminin antibodies. After washing, the amount of laminin bound to the surface was detected by flow cytometry, and IC50s were calculated based on the mean fluorescent intensity.
Amino acid and nucleic acid sequences of the heavy and light chains of these antibodies, and their hypervariable regions, are provided in SEQ ID NOs:29-92. […] As such, each of these specific monoclonal antibodies was very capable of binding to human MCAM and inhibiting the interaction of cell-expressed human MCAM with its α-4 laminin binding ligand.

[2] = biological target: T2, human MCAM W377A mutant (shotgun mutagenesis library, on BHK cells) (human, UniProt P43121 24-646); assay: shotgun mutagenesis library, immunofluorescence on BHK cells, triplicate, background-subtracted and normalized to WT
T2 chain: T1 chain with W354A
Method: The mutation library was assayed for surface expression (mouse sera binding) and monoclonal antibody binding, in triplicate. Each raw data point was background-subtracted and normalized to the wild type MCAM reactivity values. The mean monoclonal antibody binding value for each clone is plotted as a function of its mean surface expression value (FIG. 1, gray diamonds). Thresholds of <30% monoclonal antibody reactivity and >50% mouse sera binding were applied to identify clones (FIG. 1, black diamonds) that were negative for monoclonal antibody binding but positive for surface expression.
Residues involved in antibody binding were identified as those that were negative for monoclonal antibody binding (<30% WT) but positive for surface expression (>50% WT) (Table 4). The mean reactivity (and standard deviation) were determined for each critical residue.

[3] = biological target: T3, human MCAM (antigen of the BLI kinetics in Example 7) (human, UniProt P43121 24-559, limits assumed); assay: BLI, ForteBio Octet QK, apparent kd
T3 chain: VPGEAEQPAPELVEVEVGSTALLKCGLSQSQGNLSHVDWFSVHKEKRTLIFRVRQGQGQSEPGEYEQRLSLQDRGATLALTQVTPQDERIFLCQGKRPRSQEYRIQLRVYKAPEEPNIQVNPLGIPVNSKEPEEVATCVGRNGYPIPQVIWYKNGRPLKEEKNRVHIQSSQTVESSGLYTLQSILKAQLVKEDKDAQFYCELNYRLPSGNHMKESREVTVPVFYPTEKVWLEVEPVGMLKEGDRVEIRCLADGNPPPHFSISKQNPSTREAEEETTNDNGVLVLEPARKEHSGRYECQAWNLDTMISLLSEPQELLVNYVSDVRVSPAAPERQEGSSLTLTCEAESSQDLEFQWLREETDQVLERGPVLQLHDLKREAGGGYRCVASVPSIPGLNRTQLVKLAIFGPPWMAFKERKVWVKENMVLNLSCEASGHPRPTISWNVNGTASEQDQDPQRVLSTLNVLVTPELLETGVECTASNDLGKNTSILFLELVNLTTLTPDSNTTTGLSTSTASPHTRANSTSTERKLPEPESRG
Excerpt: Apparent ka, apparent kd and apparent KD are binding kinetic parameters obtained using ForteBio assay formats.

IC50 [1]: 0.545 µg/mL
koff [3]: 0.000402 s⁻¹
B1: mouse anti-human MCAM monoclonal antibody clone 1749.1.3 (antibody, V domains shown)
VH: DVKLVESGGDLVKPGGSLKLSCAASGFTFSSYIMSWVRQTPEKRLEWVATISSGGSSTYYPDSVKGRFTISRDNAKNTLYLQMSSLKSEDTAMYYCTRDDDYDVKVFAYWGQGTLVTVSA
VL: DIVMSQSPSSLAVSAGEKVTMNCKSSRSLLNSRIRKNYLAWYQQKPGQSPKLLIYWASTRESGVPDRFTGSGSGTDFTLTISSVQAEDLAVYYCKQSYNLLTFGAGTKLELK
notes: Mouse hybridoma monoclonal antibody; also called m1749
mean reactivity (% of wild type MCAM), standard deviation in brackets [2]: 13.7 % of WT
